# Results taken from article PMC7954794, “Protein context shapes the specificity of SH3 domain-mediated interactions in vivo” (Nature Communications, 2021).
# B1: ABP1 L48L (protein, UniProt P15891 2-592, looked up)
# Actin-binding protein: ALEPIDYTTHSREIDAEYLKIVRGSDPDTTWLIISPNAKKEYEPESTGSSFHDFLQLFDETKVQYGLARVSPPGSDVEKIIIIGWCPDSAPLKTRASFAANFAAVANNLFKGYHVQVTARDEDDLDENELLMKISNAAGARYSIQTSSKQQGKASTPPVKKSFTPSKSPAPVSKKEPVKTPSPAPAAKISSRVNDNNDDDDWNEPELKERDFDQAPLKPNQSSYKPIGKIDLQKVIAEEKAKEDPRLVQKPTAAGSKIDPSSDIANLKNESKLKRDSEFNSFLGTTKPPSMTESSLKNDDDKVIKGFRNEKSPAQLWAERKAKQNSGNAETKAEAPKPEVPEDEPEGEPDVKDLKSKFEGLAASEKEEEEMENKFAPPPKKSEPTIISPKPFSKPQEPVKAEEAEQPKTDYKKIGNPLPGMHIEADNEEEPEENDDDWDDDEDEAAQPPLPSRNVASGAPVQKEEPEQEEIAPSLPSRNSIPAPKQEEAPEQAPEEEIEEEAEEAAPQLPSRSSAAPPPPPRRATPEKKPKENPWATAEYDYDAAEDNELTFVENDKIINIEFVDDDWWLGELEKDGSKGLFPSNYVSLGN
# modifications: synonymous codon change L48L
# B2: ABP1 Y53Y (protein, UniProt P15891 2-592, looked up)
# Actin-binding protein: B1 Actin-binding protein
# modifications: synonymous codon change Y53Y
# B3: ABP1 P50P (protein, UniProt P15891 2-592, looked up)
# Actin-binding protein: B1 Actin-binding protein
# modifications: synonymous codon change P50P
# B4: ABP1 S51S (protein, UniProt P15891 2-592, looked up)
# Actin-binding protein: B1 Actin-binding protein
# modifications: synonymous codon S51S
# B5: ABP1 F49F (protein, UniProt P15891 2-592, looked up)
# Actin-binding protein: B1 Actin-binding protein
# modifications: synonymous F49F
# B6: ABP1 V20V (protein, UniProt P15891 2-592, looked up)
# Actin-binding protein: B1 Actin-binding protein
# modifications: synonymous V20V codon change in SH3
# B7: ABP1 F19F (protein, UniProt P15891 2-592, looked up)
# Actin-binding protein: B1 Actin-binding protein
# modifications: synonymous codon change F19F
# B8: ABP1 T18T (protein, UniProt P15891 2-592, looked up)
# Actin-binding protein: B1 Actin-binding protein
# modifications: synonymous codon change T18T
# B9: ABP1 D23D (protein, UniProt P15891 2-592, looked up)
# Actin-binding protein: B1 Actin-binding protein
# modifications: synonymous codon change D23D
# B10: ABP1 N22N (protein, UniProt P15891 2-592, looked up)
# Actin-binding protein: B1 Actin-binding protein
# modifications: synonymous codon change N22N
# B11: ABP1 E21E (protein, UniProt P15891 2-592, looked up)
# Actin-binding protein: B1 Actin-binding protein
# modifications: synonymous codon change E21E in SH3
# B12: YGL153W (protein, UniProt P53112 2-341, looked up)
# Peroxisomal membrane protein …: SDVVSKDRKALFDSAVSFLKDESIKDAPLLKKIEFLKSKGLTEKEIEIAMKEPKKDGIVGDEVSKKIGSTENRASQDMYLYEAMPPTLPHRDWKDYFVMATATAGLLYGAYEVTRRYVIPNILPEAKSKLEGDKKEIDDQFSKIDTVLNAIEAEQAEFRKKESETLKELSDTIAELKQALVQTTRSREKIEDEFRIVKLEVVNMQNTIDKFVSDNDGMQELNNIQKEMESLKSLMNNRMESGNAQDNRLFSISPNGIPGIDTIPSASEILAKMGMQEESDKEKENGSDANKDDNAVPAWKKAREQTIDSNASIPEWQKNTAANEISVPDWQNGQVEDSIP
# B13: YDR329C (protein, UniProt P28795 1-441, looked up)
# Peroxisomal biogenesis factor …: MAPNQRSRSLLQRHRGKVLISLTGIAALFTTGSVVVFFVKRWLYKQQLRITEQHFIKEQIKRRFEQTQEDSLYTIYELLPVWRMVLNENDLNLDSIVTQLKDQKNQLTRAKSSESRESSPLKSKAELWNELELKSLIKLVTVTYTVSSLILLTRLQLNILTRNEYLDSAIKLTMQQENCNKLQNRFYNWVTSWWSDPEDKADDAMVMAAKKSKKEGQEVYINEQAFLSLSWWILNKGWLSYNEIITNQIEIEFDGIHPRDTLTLEEFSSRLTNIFRNTNSQIFQQNNNNLTSILLPKDSSGQEFLLSQTLDADALTSFHSNTLVFNQLVNELTQCIESTATSIVLESLINESFHFIMNKVGIKTIAKKKPGQEDQQQYQMAVFAMSMKDCCQEMLQTTAGSSHSGSVNEYLATLDSVQPLDDLSASVYSNFGVSSSFSFKP
# Test system: Hua2
# Assay: Deep mutational scanning of Abp1 SH3, Abp1-Hua2 DHFR-PCA (DMS score)
# Assay type: cell-based, Saccharomyces cerevisiae
# Conditions: Abp1-Hua2 DHFR-PCA, MTX2; scaled to synonymous mutation distribution
# Protocol: (§1) Single site mutation libraries were generated by a PCR-based saturation mutagenesis method[50] as described below. The mutagenesis was carried out on the pUC19 plasmid containing the SH3 domain sequence of ABP1 flanked by its homology arms subsequently used in the CRISPR mediated genomic re-integration. We used oligos containing degenerate nucleotides (NNN) to carry out the mutagenesis at each codon of the domain sequence. In the first step of the two-step PCR procedure (short PCR step), an amplicon was generated with an oligo containing the degenerate codon which is positioned within the domain sequence, and another oligo lying outside Abp1 sequence in the plasmid. Short PCR step was carried out with the following settings: 5 min at 95 °C, 35 cycles: 20 s at 98 °C, 15 s at 60 °C, 30 s at 72 °C, and a final extension of 1 min at 72 °C. The amplicon generated in this step was used as a mega primer in the second step (long PCR step) to amplify the whole plasmid. Long PCR step was carried out with the following settings: 5 min at 95 °C, 22 cycles: 20 s at 98 °C, 15 s at 68 °C, 3 min 30 s at 72 °C, and a final extension of 5 min at 72 °C. The long PCR product was digested for 2 h at 37 °C with DpnI. The digestion product was then transformed into E. coli MC1061 competent cells. In order to obtain most of the 64 possible codons, we recovered ~1000 colonies from each plate to retrieve the plasmid single mutant libraries. Saturation mutagenesis was carried out in a codon-position-wise manner. Mutants at each position were stored separately. Library quality control was assessed by amplifying the purified plasmid DNA preparations by PCR followed by Illumina sequencing as described below. The genomic insertion of the mutant libraries (one library per amino acid position) was performed by targeting the stuffer sequence in the ABP1 SH3-deleted strain as described in the strain construction section. ABP1 SH3-deleted yeast competent cells were co-transformed with pCAS containing the stuffer-specific gRNA and PCR amplified ABP1 SH3 single position mutated libraries from the pUC19 preparations. As for the library generation, ~1000 colonies from each plate were retrieved. Glycerol stocks of yeast cells were kept for each position (58 different stocks corresponding to the 58 amino acid positions of Abp1 SH3). The stocks were also validated by Illumina sequencing (see below).
# (§2) Liquid DHFR-PCA experiments were performed following the generation of the ABP1 SH3 single position mutated yeast strains and were performed in biological independent duplicates. An overnight culture was started in YPD + NAT by adding the same number of cells from each yeast mutant strain (master pool). Then, the master pool and Hua2-DHFR F[3] or Lsb3-DHFR F[3] preys strains were mixed in YPD (2:1) for mating and incubated for 8 h at 30 °C. Diploid cells were selected the first time by transferring the mixture in a YPD + NAT + HPH (OD 0.5) culture for 16 h at 30 °C. The next day, the first diploid selection was transferred in SC complete pH 6.0 + NAT + HPH at 0.5 OD and the culture was grown for 24 h at 30 °C. The validation of the yeast mutant libraries was done the next day with a fraction of the diploid cells (first DHFR-PCA experiment time point without PCA selection, reference condition S2) by amplifying ABP1 SH3 genomic sequence followed by Illumina sequencing as described in the section below. Following the selection, diploid cells OD was read using a TECAN Infinite F200 Pro, and dilutions to 0.1 OD in PCA selection media without agar in a 50 mL tube was done. Tubes were incubated at 30 °C for 72 h (second-time point of the DHFR-PCA experiment, first PCA selection). A fraction of the cells (5U OD) was collected for Illumina sequencing. The cells from the first PCA step were grown for a second PCA selection step using the same procedures. […]
row,Molecule,hua2sc: Frequencies scaled to the synonymous mutation distribution (DMS score)
1,B1,-0.5549
2,B2,-0.26
3,B3,-0.6569
4,B4,-0.02064
5,B5,0.1177

# Same assay, conditions: Abp1-Hua2 DHFR-PCA, MTX2; single amino acid variants of Abp1 SH3
row,Molecule,HUA2_MTX2: frequencies normalized to the reference condition
1,B1,1.058
2,B2,1.353
3,B3,0.9559
4,B4,1.592
5,B5,1.73

# Same assay, conditions: classification from both Hua2 and Lsb3 DMS scores; Dest. both / Dest. Hua2 / Dest. Lsb3 / Neutral
row,Molecule,quadrant (effect of mutation on Hua2 and Lsb3 interactions)
1,B1,Neutral
2,B2,Neutral
3,B3,Neutral
4,B4,Neutral
5,B5,Neutral

# Same assay, conditions: frequencies normalized to the reference condition; Abp1-Hua2 DHFR-PCA, MTX2; amino acid level
row,Molecule,HUA2_MTX2
1,B6,1.042
2,B7,2.091
3,B8,1.603
4,B9,1.908
5,B10,0.8417
6,B11,2.3423

# Same assay, conditions: frequencies scaled to the synonymous mutation distribution; Abp1-Hua2 DHFR-PCA
row,Molecule,hua2sc (DMS score)
1,B6,-0.571
2,B7,0.4783
3,B8,-0.009347
4,B9,0.295
5,B10,-0.7711
6,B11,0.7295

# Test system: BEM1-1
# Assay: DHFR-PCA on solid medium, bait BEM1-1 (Fig. 1B)
# Assay type: cell-based, Saccharomyces cerevisiae
# Conditions: bait BEM1-1, label = prey; 2-8 replicates
# From the text: Supplement 41467_2021_21873_MOESM8_ESM.xlsx, sheet "Fig1B" | column: medsize; medrep; Ratio; Score
row,Molecule,"medrep (log2 median colony size normalized to plate background, PCA score)"
1,B12,2.088
2,B13,2.151

# Same assay, conditions: bait BEM1-1, label = prey; only significant differences showed; PPIs completely lost have a ratio of 0.1 and the gained PPIs 2.5
row,Molecule,Ratio (SH3-deleted/WT medrep)
1,B12,2.5
2,B13,2.5

# Test system: Lsb3
# Assay: Deep mutational scanning of Abp1 SH3, Abp1-Lsb3 DHFR-PCA (DMS score)
# Assay type: cell-based, Saccharomyces cerevisiae
# Conditions: Abp1-Lsb3 DHFR-PCA, MTX2; scaled to synonymous mutation distribution
# Protocol: as §1, §2
row,Molecule,lsb3sc: Frequencies scaled to the synonymous mutation distribution (DMS score)
1,B1,-0.4967
2,B2,-0.1658
3,B3,-0.6263
4,B4,0.05209
5,B5,-0.3759

# Same assay, conditions: Abp1-Lsb3 DHFR-PCA, MTX2; single amino acid variants of Abp1 SH3
row,Molecule,LSB3_MTX2: frequencies normalized to the reference condition
1,B1,1.0036
2,B2,1.335
3,B3,0.874
4,B4,1.552
5,B5,1.124

# Same assay, conditions: frequencies normalized to the reference condition; Abp1-Lsb3 DHFR-PCA, MTX2; amino acid level
row,Molecule,LSB3_MTX2
1,B6,1.496
2,B7,1.966
3,B8,1.406
4,B9,1.357
5,B10,0.8355
6,B11,2.169

# Same assay, conditions: frequencies scaled to the synonymous mutation distribution; Abp1-Lsb3 DHFR-PCA
row,Molecule,lsb3sc (DMS score)
1,B6,-0.004531
2,B7,0.4657
3,B8,-0.09387
4,B9,-0.1431
5,B10,-0.6648
6,B11,0.669
